In patent US7122382:
Values belong to the substance of their own block, whether it stands above or below them.

Key:
[1] = target: p53 (UniProt P02340); assay: biotinylated row protein on streptavidin beads, 35S column protein counted
[2] = target: luciferase [luciferase: P08659]; assay: as above
[3] = target: Fos (UniProt P01101); assay: as above
[4] = target: SV40 large T (SV40) (UniProt P03070); assay: as above
[5] = target: Jun (UniProt P05627); assay: as above
[6] = target: streptoavidin beads (UniProt P22629); assay: five 35S-labelled proteins alone on streptavidin beads, no biotinylated protein
Chain of streptoavidin beads (P22629 37-163): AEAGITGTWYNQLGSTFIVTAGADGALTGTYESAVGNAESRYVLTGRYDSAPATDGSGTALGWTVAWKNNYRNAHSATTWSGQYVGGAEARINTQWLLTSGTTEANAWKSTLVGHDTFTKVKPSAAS

Chain of Fos (P01101 whole entry): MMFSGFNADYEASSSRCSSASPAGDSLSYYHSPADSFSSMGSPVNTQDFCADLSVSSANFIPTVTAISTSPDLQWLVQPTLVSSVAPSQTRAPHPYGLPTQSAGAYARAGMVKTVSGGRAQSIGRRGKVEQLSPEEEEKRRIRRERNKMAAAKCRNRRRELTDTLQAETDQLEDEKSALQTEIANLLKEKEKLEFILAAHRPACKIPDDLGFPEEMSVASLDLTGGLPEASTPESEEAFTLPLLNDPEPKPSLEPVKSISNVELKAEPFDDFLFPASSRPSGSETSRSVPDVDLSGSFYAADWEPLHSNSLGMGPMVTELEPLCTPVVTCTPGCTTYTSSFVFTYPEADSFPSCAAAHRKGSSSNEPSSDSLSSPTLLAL
Chain of Jun (P05627 whole entry): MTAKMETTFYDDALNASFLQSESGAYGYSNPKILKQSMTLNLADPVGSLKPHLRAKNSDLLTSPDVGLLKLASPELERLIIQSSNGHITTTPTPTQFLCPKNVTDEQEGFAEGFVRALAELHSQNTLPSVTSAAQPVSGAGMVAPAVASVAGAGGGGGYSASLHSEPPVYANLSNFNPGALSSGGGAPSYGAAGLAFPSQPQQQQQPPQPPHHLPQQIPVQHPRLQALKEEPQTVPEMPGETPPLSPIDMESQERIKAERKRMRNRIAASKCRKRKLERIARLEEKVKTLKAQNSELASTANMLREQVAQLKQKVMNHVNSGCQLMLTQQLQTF
Chain of p53 (P02340 whole entry): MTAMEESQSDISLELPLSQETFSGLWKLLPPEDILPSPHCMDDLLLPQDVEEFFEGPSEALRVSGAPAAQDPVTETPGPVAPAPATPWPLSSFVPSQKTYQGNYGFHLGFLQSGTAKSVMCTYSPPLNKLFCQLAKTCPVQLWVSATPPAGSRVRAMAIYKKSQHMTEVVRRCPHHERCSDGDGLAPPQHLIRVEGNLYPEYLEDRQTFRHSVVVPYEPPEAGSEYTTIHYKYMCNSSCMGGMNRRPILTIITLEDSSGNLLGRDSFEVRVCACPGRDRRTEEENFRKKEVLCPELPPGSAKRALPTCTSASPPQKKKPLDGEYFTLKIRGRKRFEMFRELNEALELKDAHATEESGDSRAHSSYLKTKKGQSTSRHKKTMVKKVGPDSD
Chain of luciferase [luciferase: P08659] (P08659 whole entry): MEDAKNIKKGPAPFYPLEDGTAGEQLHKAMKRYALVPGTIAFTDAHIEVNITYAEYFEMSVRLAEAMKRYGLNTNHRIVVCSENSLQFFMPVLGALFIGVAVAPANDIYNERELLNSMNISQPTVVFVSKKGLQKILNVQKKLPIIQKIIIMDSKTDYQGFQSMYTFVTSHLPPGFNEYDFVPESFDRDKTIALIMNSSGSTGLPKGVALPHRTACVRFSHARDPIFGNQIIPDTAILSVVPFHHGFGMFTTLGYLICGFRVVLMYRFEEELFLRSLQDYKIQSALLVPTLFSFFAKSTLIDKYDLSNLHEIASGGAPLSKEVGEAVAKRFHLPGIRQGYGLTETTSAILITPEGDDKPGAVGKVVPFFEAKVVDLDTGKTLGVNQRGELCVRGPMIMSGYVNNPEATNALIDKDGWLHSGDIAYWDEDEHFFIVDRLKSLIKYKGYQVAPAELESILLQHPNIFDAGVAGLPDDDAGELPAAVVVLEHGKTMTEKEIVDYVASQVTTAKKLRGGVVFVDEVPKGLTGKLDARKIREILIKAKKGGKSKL

Substance: SV40 large T (from UniProt P03070 1-708) (other; other documents disagree on this pair)
- RI (c.p.m.) [1]: 1400 c.p.m.
- RI (c.p.m.) [2]: 208 c.p.m.

Substance: SV40 large T (from UniProt P03070 1-708)
- RI (c.p.m.) [3]: 197 c.p.m.
- RI (c.p.m.) [4]: 551 c.p.m.
- RI (c.p.m.) [5]: 197 c.p.m.

Substance: mixture of the five proteins of Reference Examples 1 and 2 (Fos, Jun, luciferase, SV40 large T, p53)
- RI (cpm), background without biotinylated proteins [6]: 447 cpm

- RI (c.p.m.) [1]: 200 c.p.m.
Substance: p53 (from UniProt P02340 1-390)
